Test results from patent US7569748 (WISCONSIN ALUMNI RESEARCH FOUNDATION, dated 2009).

Tests used:
[1] = test system: TcbA (native, from W-14 broth)
TcdAiii = molecular target: T1, TcdAiii (Photorhabdus luminescens strain W-14); assay: native PAGE (one major band), gel filtration 860 kDa, 1 to 1 molar ratio by densitometry
T1 construct: Processed peptide of TcdA; also called A2
T1 chain: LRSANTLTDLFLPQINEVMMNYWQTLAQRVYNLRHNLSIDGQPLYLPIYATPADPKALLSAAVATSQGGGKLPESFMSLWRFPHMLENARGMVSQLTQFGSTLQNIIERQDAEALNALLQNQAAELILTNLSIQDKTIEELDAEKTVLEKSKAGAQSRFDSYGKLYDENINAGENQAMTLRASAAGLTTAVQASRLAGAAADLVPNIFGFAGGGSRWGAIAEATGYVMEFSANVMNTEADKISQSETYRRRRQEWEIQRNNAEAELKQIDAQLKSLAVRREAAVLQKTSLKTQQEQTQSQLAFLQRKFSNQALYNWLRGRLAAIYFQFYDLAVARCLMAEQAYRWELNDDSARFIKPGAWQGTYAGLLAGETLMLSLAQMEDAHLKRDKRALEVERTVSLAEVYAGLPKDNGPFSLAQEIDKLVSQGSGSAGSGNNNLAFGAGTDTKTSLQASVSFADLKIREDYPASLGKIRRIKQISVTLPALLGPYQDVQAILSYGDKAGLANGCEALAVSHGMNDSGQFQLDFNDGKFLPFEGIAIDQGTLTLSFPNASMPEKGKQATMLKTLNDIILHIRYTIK

TcbAiii = molecular target: T2, TcbAiii (Photorhabdus luminescens strain W-14); assay: native PAGE (one major band), gel filtration 860 kDa, same molar concentration
T2 construct: Processed peptide of TcbA; also detected in E. coli preparations expressing tcbA constructs; also called B2; 58 kDa peptide of toxin B
T2 chain: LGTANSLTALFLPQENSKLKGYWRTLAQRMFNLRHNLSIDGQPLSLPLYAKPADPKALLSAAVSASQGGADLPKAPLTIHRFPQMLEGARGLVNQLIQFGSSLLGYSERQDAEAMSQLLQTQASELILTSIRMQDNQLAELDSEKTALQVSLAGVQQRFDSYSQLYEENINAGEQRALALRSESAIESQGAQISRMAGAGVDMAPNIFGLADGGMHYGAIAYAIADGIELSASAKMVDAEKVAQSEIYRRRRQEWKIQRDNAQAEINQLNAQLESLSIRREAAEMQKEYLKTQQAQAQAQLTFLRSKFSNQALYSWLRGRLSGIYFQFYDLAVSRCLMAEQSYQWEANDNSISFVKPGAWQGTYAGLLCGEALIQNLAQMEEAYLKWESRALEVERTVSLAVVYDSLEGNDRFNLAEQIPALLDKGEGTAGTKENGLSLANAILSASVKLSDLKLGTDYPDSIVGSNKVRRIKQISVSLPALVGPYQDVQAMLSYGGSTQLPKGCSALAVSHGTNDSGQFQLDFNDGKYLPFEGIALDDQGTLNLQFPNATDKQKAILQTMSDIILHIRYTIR

38 kDa W-14 Photorhabdus metalloprotease
TcbA (% of total protein) after 38 kDa protease treatment (control 58) (% of total protein) [1]: 18
cleavage of TcbA followed by SDS-PAGE densitometry [1]: the amount of peptides TcbAii and TcbAiii increased about 3-fold while the amount of TcbA peptide decreased proportionally

58 kDa W-14 Photorhabdus metalloprotease
cleavage of TcbA followed by SDS-PAGE densitometry [1]: the amount of peptides TcbAii and TcbAiii increased about 3-fold while the amount of TcbA peptide decreased proportionally

B1: TcdAii (other)
chain: LIGYNNQFSGRASQYVAPGTVSSMFSPAAYLTELYREARNLHASDSVYYLDTRRPDLKSMALSQQNMDIELSTLSLSNELLLESIKTESKLENYTKVMEMLSTFRPSGATPYHDAYENVREVIQLQDPGLEQLNASPAIAGLMHQASLLGINASISPELFNILTEEITEGNAEELYKKNFGNIEPASLAMPEYLKRYYNLSDEELSQFIGKASNFGQQEYSNNQLITPVVNSSDGTVKVYRITREYTTNAYQMDVELFPFGGENYRLDYKFKNFYNASYLSIKLNDKRELVRTEGAPQVNIEYSANITLNTADISQPFEIGLTRVLPSGSWAYAAAKFTVEEYNQYSFLLKLNKAIRLSRATELSPTILEGIVRSVNLQLDINTDVLGKVFLTKYYMQRYAIHAETALILCNAPISQRSYDNQPSQFDRLFNTPLLNGQYFSTGDEEIDLNSGSTGDWRKTILKRAFNIDDVSLFRLLKITDHDNKDGKIKNNLKNLSNLYIGKLLADIHQLTIDELDLLLIAVGEGKTNLSAISDKQLATLIRKLNTITSWLHTQKWSVFQLFIMTSTSYNKTLTPEIKNLLDTVYHGLQGFDKDKADLLHVMAPYIAATLQLSSENVAHSVLLWADKLQPGDGAMTAEKFWDWLNTKYTPGSSEAVETQEHIVQYCQALAQLEMVYHSTGINENAFRLFVTKPEMFGAATGAAPAHDALSLIMLTRFADWVNALGEKASSVLAAFEANSLTAEQLADAMNLDANLLLQASIQAQNHQHLPPVTPENAFSCWTSINTILQWVNVAQQLNVAPQGVSALVGLDYIQSMKETPTYAQWENAAGVLTAGLNSQQANTLHAFLDESRSAALSTYYIRQVAKAAAAIKSRDDLYQYLLIDNQVSAAIKTTRIAEAIASIQLYVNRALENVEENANSGVISRQFFIDWDKYNKRYSTWAGVSQLVYYPENYIDPTMRIGQTKMMDALLQSVSQSQLNADTVEDAFMSYLTSFEQVANLKVISAYHDNINNDQGLTYFIGLSETDAGEYYWRSVDHSKFNDGKFAANAWSEWHKIDCPINPYKSTIRPVIYKSRLYLLWLEQKEITKQTGNSKDGYQTETDYRYELKLAHIRYDGTWNTPITFDVNKKISELKLEKNRAPGLYCAGYQGEDTLLVMFYNQQDTLDSYKNASMQGLYIFADMASKDMTPEQSNVYRDNSYQQFDTNNVRRVNNRYAEDYEIPSSVSSRKDYGWGDYYLSMVYNGDIPTINYKAASSDLKIYISPKLRIIHNGYEGQKRNQCNLMNKYGKLGDKFIVYTSLGVNPNNSSNKLMFYPVYQYSGNTSGLNQGRLLFHRDTTYPSKVEAWIPGAKRSLTNQNAAIGDDYATDSLNKPDDLKQYIFMTDSKGTATDVSGPVEINTAISPAKVQIIVKAGGKEQTFTADKDVSIQPSPSFDEMNYQFNALEIDGSGLNFINNSASIDVTFTAFAEDGRKLGYESFSIPVTLKVSTDNALTLHHNENGAQYMQWQSYRTRLNTLFARQLVARATTGIDTILSMETQNIQEPQLGKGFYATFVIPPYNLSTHGDERWFKLYIKHVVDNNSHIIYSGQLTDTNINITLFIPLDDVPLNQDYHAKVYMTFKKSPSDGTWWGPHFVRDDKGIVTINPKSILTHFESVNVLNNISSEPMDFSGANSLYFWELFYYTPMLVAQRLLHEQNFDEANRWLKYVWSPSGYIVHGQIQNYQWNVRPLLEDTSWNSDPLDSVDPDAVAQHDPMHYKVSTFMRTLDLLIARGDHAYRQLERDTLNEAKMWYMQALHLLGDKPYLPLSTTWSDPRLDRAADITTQNAHDSAIVALRQNIPTPAPLS
notes: Processed peptide of TcdA; also called A1
binding result (TcdAiii): binds

B2: TcbAii (other)
chain: FIQGYSDLFGNRADNYAAPGSVASMFSPAAYLTELYREAKNLHDSSSIYYLDKRRPDLASLMLSQKNMDEEISTLALSNELCLAGIETKTGKSQDEVMDMLSTYRLSGETPYHHAYETVREIVHERDPGFRHLSQAPIVAAKLDPVTLLGISSHISPELYNLLIEEIPEKDEAALDTLYKTNFGDITTAQLMSPSYLARYYGVSPEDIAYVTTSLSHVGYSSDILVIPLVDGVGKMEVVRVTRTPSDNYTSQTNYIELYPQGGDNYLIKYNLSNSFGLDDFYLQYKDGSADWTEIAHNPYPDMVINQKYESQATIKRSDSDNILSIGLQRWHSGSYNFAAANFKIDQYSPKAFLLKMNKAIRLLKATGLSFATLERIVDSVNSTKSITVEVLNKVYRVKFYIDRYGISEETAAILANINISQQAVGNQLSQFEQLFNHPPLNGIRYEISEDNSKHLPNPDLNLKPDSTGDDQRKAVLKRAFQVNASELYQMLLITDRKEDGVIKNNLENLSDLYLVSLLAQIHNLTIAELNILLVICGYGDTNIYQITDDNLAKIVETLLWITQWLKTQKWTVTDLFLMTTATYSTTLTPEISNLTATLSSTLHGKESLIGEDLKRAMAPCFTSALHLTSQEVAYDLLLWIDQIQPAQITVDGFWEEVQTTPTSLKVITFAQVLAQLSLIYRRIGLSETELSLIVTQSSLLVAGKSILDHGLLTLMALEGFHTWVNGLGQHASLILAALKDGALTVTDVAQAMNKEESLLQMAANQVEKDLTKLTSWTQIDAILQWLQMSSALAVSPLDLAGMMALKYGIDHNYAAWQAAAAALMADHANQAQKKLDETFSKALCNYYINAVVDSAAGVRDRNGLYTYLLIDNQVSADVITSRIAEAIAGIQLYVNRALNRDEGQLASDVSTRQFFTDWERYNKRYSTWAGVSELVYYPENYVDPTQRIGQTKMMDALLQSINQSQLNADTVEDAFKTYLTSFEQVANLKVISAYHDNVNVDQGLTYFIGIDQAAPGTYYWRSVDHSKCENGKFAANAWGEWNKITCAVNPWKNIIRPVVYMSRLYLLWLEQQSKKSDDGKTTIYQYNLKLAHIRYDGSWNTPFTFDVTEKVKNYTSSTDAAESLGLYCTGYQGEDTLLVMFYSMQSSYSSYTDNNAPVTGLYIFADMSSDNMTNAQATNYWNNSYPQFDTVMADPDSDNKKVITRRVNNRYAEDYEIPSSVTSNSNYSWGDHSLTMLYGGSVPNITFESAAEDLRLSTNMALSIIHNGYAGTRRIQCNLMKQYASLGDKFIIYDSSFDDANRFNLVPLFKFGKDENSDDSICIYNENPSSEDKKWYFSSKDDNKTADYNGGTQCIDAGTSNKDFYYNLQEIEVISVTGGYWSSYKISNPININTGIDSAKVKVTVKAGGDDQIFTADNSTYVPQQPAPSFEEMIYQFNNLTIDCKNLNFIDNQAHIEIDFTATAQDGRFLGAETFIIPVTKKVLGTENVIALYSENNGVQYMQIGAYRTRLNTLFAQQLVSRANRGIDAVLSMETQNIQEPQLGAGTYVQLVLDKYDESIHGTNKSFAIEYVDIFKENDSFVIYQGELSETSQTVVKVFLSYFIEATGNKNHLWVRAKYQKETTDKILFDRTDEKDPHGWFLSDDHKTFSGLSSAQALKNDSEPMDFSGANALYFWELFYYTPMMMAHRLLQEQNFDAANHWFRYVWSPSGYIVDGKIAIYHWNVRPLEEDTSWNAQQLDSTDPDAVAQDDPMHYKVATFMATLDLLMARGDAAYRQLERDTLAEAKMWYTQALNLLGDEPQVMLSTTWANPTLGNAASKTTQQVRQQVLTQLRLNSRVKTPL
notes: Processed peptide of TcbA; also called B1; 201 kDa peptide
binding result (TcbAiii): binds
